From patent US20170369545A1

Biological target: tyrosine kinase receptor MET on HeLa cells (UniProt P08581)
Sequence (P08581 25-1390 limits assumed): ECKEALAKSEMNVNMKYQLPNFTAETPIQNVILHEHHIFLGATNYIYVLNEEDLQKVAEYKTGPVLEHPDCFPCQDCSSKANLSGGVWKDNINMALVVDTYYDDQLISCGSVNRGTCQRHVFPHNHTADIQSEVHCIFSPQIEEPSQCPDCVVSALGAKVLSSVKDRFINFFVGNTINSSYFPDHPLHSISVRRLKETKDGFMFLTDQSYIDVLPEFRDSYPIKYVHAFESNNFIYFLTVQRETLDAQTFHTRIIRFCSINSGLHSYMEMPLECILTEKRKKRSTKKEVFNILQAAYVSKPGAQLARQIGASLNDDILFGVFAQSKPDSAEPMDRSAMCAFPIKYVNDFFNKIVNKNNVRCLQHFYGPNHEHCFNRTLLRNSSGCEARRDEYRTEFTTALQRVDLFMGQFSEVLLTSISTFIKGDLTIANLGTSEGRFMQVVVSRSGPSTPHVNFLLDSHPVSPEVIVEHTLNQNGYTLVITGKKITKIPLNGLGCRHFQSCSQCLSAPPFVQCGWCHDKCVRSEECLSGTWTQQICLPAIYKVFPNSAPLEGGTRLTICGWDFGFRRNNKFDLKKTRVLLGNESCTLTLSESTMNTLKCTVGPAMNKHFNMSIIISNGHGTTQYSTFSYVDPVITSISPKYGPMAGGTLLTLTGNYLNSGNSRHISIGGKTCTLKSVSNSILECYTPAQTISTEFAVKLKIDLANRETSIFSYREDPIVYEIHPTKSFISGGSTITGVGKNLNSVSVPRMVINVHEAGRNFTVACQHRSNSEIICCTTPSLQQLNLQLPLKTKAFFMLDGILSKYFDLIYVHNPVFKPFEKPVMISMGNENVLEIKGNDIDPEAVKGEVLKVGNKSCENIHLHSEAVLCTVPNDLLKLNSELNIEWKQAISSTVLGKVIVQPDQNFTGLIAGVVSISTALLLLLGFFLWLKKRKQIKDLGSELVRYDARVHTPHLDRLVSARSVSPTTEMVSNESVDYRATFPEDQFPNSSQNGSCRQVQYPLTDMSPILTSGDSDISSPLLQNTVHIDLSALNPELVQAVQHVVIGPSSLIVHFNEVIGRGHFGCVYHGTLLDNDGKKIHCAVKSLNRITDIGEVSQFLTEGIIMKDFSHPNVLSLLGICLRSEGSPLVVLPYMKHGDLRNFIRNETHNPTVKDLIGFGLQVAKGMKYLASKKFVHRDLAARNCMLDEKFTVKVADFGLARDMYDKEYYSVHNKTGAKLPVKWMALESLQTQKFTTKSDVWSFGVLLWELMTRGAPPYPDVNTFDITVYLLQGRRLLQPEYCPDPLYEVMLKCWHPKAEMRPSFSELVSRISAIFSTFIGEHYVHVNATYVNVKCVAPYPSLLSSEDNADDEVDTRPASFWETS

- EC50 (read off the curve), Akt phosphorylation (P-AKT) [P-AKT]: 0.03 nM
- EC50 (read off the curve), ERK phosphorylation (P-ERK) [P-ERK]: 0.02 nM
Substance: Hepatocyte growth factor/scatter factor (HGF/SF) (from UniProt P14210 32-728) (ligand)
